Test results from the DeepSol protein solubility set.

test: soluble on expression in E. coli; label from the status in PepcDB or PDB records

For “MGSDKIHHHHHHGCSYGVGDDCLPPEEPVPIRMAIAEGKLSTRAPVTTIDASNLSNVGIYAVSEGSIAGQYPWTSTPFALNLVPSGISGSQLSFNPKLYYPLGGKRVIFYSYYPRTTATSGSNYITAPGNGVAPAYHFTLTGTEDIMYAAGTPTGSTSTMPVSLTFNHVLTQLQLNTSLLGALSSIKLLGVYNKGMLDIGNGNVTYDSSTTDITLTVPLLGSVTNTVMVPAGVASYKVEVVLLLSLLKRTYLVKPTSGNFQPGVIYTISL”, which “soluble on expression in E. coli” value is on record?
The value was “not soluble”.

With “GPGSMRFRRVLAPLAASPHRWKTQRSPRGEETMGEGGAIEPDTSEAWVRNYVARAVREGRQTKESAEYFESIMNDQVEFRQYIQEARRLLNNQDPRTLTKYQRGHFAERLSRQMSGVAAERLMRAHAEESNARRHTQDGTPTGENYWFEAGNTLASPSVPGFVKDEVMREMREDRKKTSAAFEESEELQAMADKDEAFAEHLRRQRQHLFRSNDDVN” as the sequence, how does the “soluble on expression in E. coli” value read?
Its value is “not soluble”.

For “MSVEEEKGLLARADEFLQAFKKGAEFTQELLRENERLRFRTLQLEADQKGEGVAAALAVENRKLAARVEELEREIAEIIGQIRQIEAENNDFAARYVEIEEENNNLANLYIASYQLHSTLDFSEVLQIITEIIINLIGAEEFAVMLVDEKTGSLDAVAAEGISLEELPRVRLGEGVIGIAAGTGENYFAEGPETYERDLLRPMVCIPLKIKEHVIGVIAIYKLLIQKKSFASVDYELFTLLAGHAATAIFSSRIYSDSERKLSTMQGFINLLTT”, which “soluble on expression in E. coli” value is on record?
Its value is “not soluble”.

For “MKKEQISTQFYEVNPHTMIIFPKKSGSIVYSEIYEVDSHYTSKFTPFELIKTSCNFFGSSYDGGRRNGIPKIKTSSQKDVFILLLYRRNSISVTNY”, which “soluble on expression in E. coli” value is on record?
The value was “not soluble”.

With “GSHMASMFGKLREKLKSFVKRVEEEVEKEEEEVEKKGLLDRILTVEIKEKDVDKALDELEIDLLEADVALEVVDALREKIKQKLVGKKVRIGTDKGKIIEEAVKEAVSEILETSRRIDLIEEIRKAEKPYVIMFVGFNGSGKTTTIAKLANWLKNHGFSVVIAASDTFRAGAIEQLEEHAKRIGVKVIKHSYGADPAAVAYDAIQHAKARGIDVVLIDTAGRSETNRNLMDEMKKIARVTKPNLVIFVGDALAGNAIVEQARQFNEAVKIDGIILTKLDADARGGAALSISYVIDAPILFVGVGQGYDDLRPFEKEWFLERIFGEENA” as the sequence, how does the “soluble on expression in E. coli” value read?
Its value is “soluble”.

For “QLLGATVVEHNPLYTAHELEGLFQDHGARVAIAWDKAASTLEKLRDTTSLETIISVNMTEAMPRIQQLALRIPIPPIAAKREQLTAFADNTVPWSTLIGNAIGGNGKRTEFPKVTKDDIALILYTSGTTGTPKGALLSHGNLVSNCFMGKAWVPGLGDQPER”, which “soluble on expression in E. coli” value is on record?
Its value is “not soluble”.

With “MSLAAVILDYNGVIGLQPTTDQWLRLARTALWPEDDLPAFQNAFWTARTAYDAGHLSDLAYWATVLGHHPGARRLRGLRDADTDMWTSIDDHVIDVLHQAHESGLPLVLLSNAPRHLSDVLDRRPWRRLMTHAFYSARLQVCKPDPAAYQHAMNATGAADPDRVLFVDDRADNCHAARHLGLRTLHYTGHPTDLAAALQPPNEGHHHHHH” as the sequence, how does the “soluble on expression in E. coli” value read?
The value was “soluble”.

With “MALITTGSKFLRALEQEGALAVYAPLEGGYEGRYLRRLRSKGYSALTYSARGLGDPAQFLMDIHGVRPPHLGKQTIGNEAAVGRVEYVLPLVGYPLQNLPANAKGLVLWLLEGHVLSPQELSYFVTLPQAEPRLKVVIEMGGDRGFSWQPLAAVAEAALEHHHHHH” as the sequence, how does the “soluble on expression in E. coli” value read?
The value was “not soluble”.

Which “soluble on expression in E. coli” value does the source give for “MAKIAAIFQLLDKNVTVSSHRLELLSPARDAAIAREAILHGADAVYIGGPGFGARHNASNSLKDIAELVPFAHRYGAKIFVTLNTILHDDELEPAQRLITDLYQTGVDALIVQDMGILELDIPPIELHASTQCDIRTVEKAKFLSDVGFTQIVLARELNLDQIRAIHQATDATIEFFIHGALCVAYSGQCYISHAQTGRSANRGDCSQACRLPYTLKDDQGRVVSYEKHLLSMKDNDQTANLGALIDAGVRSFKIEGRYKDMSYVKNITAHYRQMLDAIIEERGDLARASSGRTEHFFVPSTEKTFHRGSTDYFVNARKGDIGAFDSPKFIGLPVGEVVKVAKDHLDVAVTEPLANGDGLNVLIKREVVGFRANTVEKTGENQYRVWPNEMPADLHKIRPHHPLNRNLDHNWQQALTKTSSERRVAVDIELGGWQEQLILTLTSEEGVSITHTLDGQFDEANNAEKAMNNLKDGLAKLGQTLYYARDVQINLPGALFVPNSLLNQFRREAADMLDAARLASYQRGSRKPVADPAPVYPQTHLSFLANVYNQKAREFYHRYGVQLIDAAYEAHEEKGEVPVMITKHCLRFAFNLCPKQAKGNIKSWKATPMQLVNGDEVLTLKFDCRPCEMHVIGKIKNHILKMPLPGSVVASVSPDELLKTLPKRKG” here?
The value was “not soluble”.

Which “soluble on expression in E. coli” value does the source give for “MKDFPIRFVLTDEAITPSAGLALVGYLLHQTKLNKRVNALRPPTVRRDVHISHSDVIRSMIGLLATGKTDFDHIEAYRQDDIFSTSMGIQHVPSSPTLRQRLDQLACLPMTETILWEESMRLLIQRHATLSPCWAKGKTTWLPLDIDGSPFDNSDTKKEGVSRTYKGFDGFTPLFAYAGKEGYIVHAELRPGKQHVQDNMPSFLTTAIRRARQLTSSRLLVRMDAGNDAEANVHVCLKEDVDFVIKRNLRRESKALWFQIASQKGKRVDDGQTEGVQTYELCLPQTAAIDGNTYTYVQVTQVTERTMERNGQVMLVPNYEVESYWVRLKGYEHVRMSDVLALYHDHATCEQFHSELKSDLDLERLPSGKMKTNALVLVMGAFVYNLLRLIGQDLLSDPRHPLHHKVKRRRIKTIIQTVITMAGRLVRRSRQLWMKLTRRSGYSILLLNVYQKWKEAR” here?
Its value is “not soluble”.

With “GSGRVSLNFKDPEAVRALTCTLLREDFGLSIDIPLERLIPTVPLRLNYIHWVEDLIGHQDSDKSTLRRGIDIGTGASCIYPLLGATLNGWYFLATEVDDMCFNYAKKNVEQNNLSDLIKVVKVPQKTLLMDALKEESEIIYDFCMCNPPFFANQLEAKGVNSRNPRRPPPSSVNTGGITEIMAEGGELEFVKRIIHDSLQLKKRLRWYSCMLGKKCSLAPLKEELRIQGVPKVTYTEFCQGRTMRWALAWSFYD” as the sequence, how does the “soluble on expression in E. coli” value read?
The value was “soluble”.

With “MGSDKIHHHHHHMDFIEVYPNAIPDDLCDRLILAFEKHSGVVDGQTGNGVDLEKKISRDLTLDNFTDLQPLKNELLSYTLKGTADYFSQYAMALMGAVAVSVSDEQGQAVTLTPSNFERLGKPRAEALVKYLYRSGSINIQKYQKNKGGYPHWHSEQFPQLSHNEALHRVVLYMFYLNDVEEGGETEFYYQQRKISPKKGTMVIAPAGFTHSHRGNMPISNDKYIATSWVMFNRAEQLYAVYA” as the sequence, how does the “soluble on expression in E. coli” value read?
The value was “not soluble”.

Which “soluble on expression in E. coli” value does the source give for “MGSDKIHHHHHHMKISLGPLLYCWEKQQVIDFYQQVANSQIPLVYLGEAVCSRRRELKWGDYLELAKMLKSAGKDVVLSTLALIEAPSEYTELKRQVDNGEFMIEANDMAAVYLAKEHKQPFVCGASINNYNRASLDILQRLGMQRFVMPVELSKTWLSQVVDKKPSFEVEVLGHGYLPLAHSARCFTARHSQLAKDSCETVCRQYSKGLLAQTQEAQPLLRLNGIQTQSASCVDLRSEISAMVKIGVDVFRVSPSSLACIAKADALVEALNSGAMDAQYPLSDEHCNGYWFGEAGLKSLS” here?
Its value is “not soluble”.

For “LTTHNFARKTFLKLAFCDICQKFLLNGFRCQTCGYKFHEHCSTKVPTMCVDW”, which “soluble on expression in E. coli” value is on record?
The value was “soluble”.

For “MAVQYKSTTTEHKFKHLSVYERGQIAALLKEGKSQRYIANKLGRSPSTISREIKRGTTMQMRTDLSTYKVYFPETGQAVYEKNRMNCGAKRKLAQVEDFLKFAEDKILREKWSPDAVVGLCRRDPKWQNSTIVCTKTLYNYIDLGLIKVRNIDLNLKLRLKS”, which “soluble on expression in E. coli” value is on record?
Its value is “soluble”.

For “MAHHHHHHMKINLSFNKNKENKNRNKNGDTDIDNDTRNNKSYKENNPMTRNKIETIFSMSDDEETINYENTHNKIIQQKKENQLNDKIKEYIKEHEEPALTTHEKKEDKKERIDEKNNKKKIQYLGYKSNELTKLNNPKTDDSYDYPFEEKEIYDNLDEKERKKKTIEHNDKDGHEYYKKDHKNHKKYTRSHENDNEVNAYNKDCDVRNKTIDKKTYMKKYDKNIQDYEKKKKKSENSDDDVNRSYLCIDDIFKKKENIDGKKKSKYMEALINSAKRRELEKEFLIQKKQKIDTEKEEKVFVTSAYKKKLMDRELIKKDMDLEVEEKKVDKSSNYNLNLFLKNINAPSNYNRYNRR”, which “soluble on expression in E. coli” value is on record?
The value was “soluble”.

For “SFDRALKPFLKSCHFQTLRDPVDQCVSYHLRSVTEKFPEVHMEVIADYEVHPNRRPKILAQTAAHVAGAAYYYQRQDVDADPWGTQHIAGVCIHPRFGGWFAIRGVMLLPGIEVPNLPPRKPPDCVPTRAGRITLLEGFNFHWRDWTYRDAVTPEERYSEEQKIYFSTPPAQRLALLGLAQPSEHPSTTSELPLSLLTKPQNSRRARSWLSPSVSPPVSPGP”, which “soluble on expression in E. coli” value is on record?
Its value is “soluble”.

With “MSLPITLDKKLPAVDILKSENIFVMDDKRAIHQDIRPMSILILNLMPTKVATETQLLRLLANTPLQLSVDFLYMTSHHSKTTQAEHMKTFYKTFKDIKDNYYDGLIITGAPVETMPFEKVDYWEELCQVFQWSKTHVYSTLHLCWGAQAGLYYRYSVDKVQMTDKLSGIYLQKVNEQLSPLMRGFDDCFLSPHSRYTEVLLKDINNKTNLEILASGEKVGLSILASRDMREVYSFGHLEYDRETLDNEYKRDLKAGKSPKIPENYYQDDDVTTHPIMRWNLAAATFFSNWINYAVYQETPYRLEELEKDISFYGYLEGHHHHHH” as the sequence, how does the “soluble on expression in E. coli” value read?
The value was “soluble”.

For “SLSKLMLRHKAKKIDHVAIAVLDLEQAIGYFSMMGFTLSDRMTTTGAHSAMHSAVMEAGPIKFVLLEGANETSQITRFINEYGPGPQHIAIEVENVESLCKELEKQGLDFSTKTIKGPELIQRFTVRCPNSGVMIEFIERNEEEGFSEQNVEDLFRQLEASDAYEG”, which “soluble on expression in E. coli” value is on record?
Its value is “soluble”.

With “MGSDKIHHHHHHMAATPRKLSSKEVAALVGNLMEASESTSLENGLEVRPYAFGENELNQLGDYHALRIINERFCRTARDVFLPMLRLQPRISSFPPEVRSFDDYRSSQDNFVSITASRIEELRGNQMIVIPPPFISLLTDSYYGGQIRHVPTTRTEFTATEERVIELVTDRLNVALQVAWRDLMALTFTVVSREESMQFASFVDGEDMVVNCSFMVQLPNTEPASFDILYPLQTLKPISSQLRSRMQSDFVDDDRSWREKLERAILSIPLTLSARLCEPEVPLRQLMQMQPGDVLPVHLTEAVSLLVEGQPIFEAAPGERGGQAALNLTRRHVRS” as the sequence, how does the “soluble on expression in E. coli” value read?
The value was “not soluble”.

For “GMEQLQKRKIYDTTASNASTGILNGKSSNVLNWDDVRFSWAYPLYKNMLANFWTPFEINMSHDAKQFPTLTETEQEAFKKIIGLLAFLDSVQTDYSMRAAEYLTDSSLAALMSVLSFQEVVHNQSYSYVLSSLVPKATQDEIFEYWKHDDVLKERNEFIIDGYEKFVDNPTPKTFLESIVYDVILEGLNFYSGFAFFYNLARNQKMVSTSTMINYINRDEQLHVYLFTNIFKELLVEFPELNTEETKTFVKTTLMKAADLEKDWFRYIIGDKIPGINPEDMETYISFIANKRAVQLGMEKPYPEIKHNPMKWIRAYEDVNSGKSDFFEQKSRQYAKVSADNGFDEL”, which “soluble on expression in E. coli” value is on record?
The value was “soluble”.

For “MFTGIIEETGTIESMKKAGHAMALTIKCSKILEDVHLGDSIAVNGICLTVTDFTKNQFTVDVMPETVKATSLNDLTKGSKVNLERAMAANGRFGGHFVSGHVDGTAEITRIEEKSNAVYYDLKMDPSLTKTLVLKGSITVDGVSLTIFGLTEDTVTISLIPHTISETIFSEKTIGSKVNIECDMIGKYMYRFLHKANENKTQQTITKAFLSENGF”, which “soluble on expression in E. coli” value is on record?
Its value is “soluble”.

For “MKVDVDEKTYIITMANDITKLYEENKRNLHYSITDPLTGAYNRKYLNDRFDIFIGDYIVLIDLDNFKMINDYEGHNVGDKILCDFVSLLNKELINSTSIIRLGGDEFIVIFSSDVDKNYVYSQLEALRENFLKVFSKYKYLSFSYGVDTVKRNLKLTIVELDKKMYKNKEKNKKKFDKNLEHHHHHH”, which “soluble on expression in E. coli” value is on record?
The value was “soluble”.
